Experimental data reported in PMC7007523 (Proceedings of the National Academy of Sciences of the …, 2020).
Non-standard residues stand in square brackets, D forms with d. No end group written: not given here. Hyp = O=C(O)[C@@H]1C[C@@H](O)CN1

What was measured:
[1] = target: GSO1/SGN3 ectodomain (residues 19 to 870) (Arabidopsis) (UniProt C0LGQ5); assay: ITC
[2] = target: GSO1/SGN3 ectodomain (residues 19 to 870) (Arabidopsis) (UniProt C0LGQ5); assay: grating-coupled interferometry
[3] = target: SGN3^3xmut ectodomain (Tyr416, Phe438 and Tyr440 replaced by alanine) (Arabidopsis) (UniProt C0LGQ5); assay: grating-coupled interferometry
[4] = target: FLS2 ectodomain (isolated) (Arabidopsis) (UniProt Q9FL28); assay: grating-coupled interferometry
FLS2 ectodomain (isolated) (Arabidopsis), sequence (Q9FL28 24-806): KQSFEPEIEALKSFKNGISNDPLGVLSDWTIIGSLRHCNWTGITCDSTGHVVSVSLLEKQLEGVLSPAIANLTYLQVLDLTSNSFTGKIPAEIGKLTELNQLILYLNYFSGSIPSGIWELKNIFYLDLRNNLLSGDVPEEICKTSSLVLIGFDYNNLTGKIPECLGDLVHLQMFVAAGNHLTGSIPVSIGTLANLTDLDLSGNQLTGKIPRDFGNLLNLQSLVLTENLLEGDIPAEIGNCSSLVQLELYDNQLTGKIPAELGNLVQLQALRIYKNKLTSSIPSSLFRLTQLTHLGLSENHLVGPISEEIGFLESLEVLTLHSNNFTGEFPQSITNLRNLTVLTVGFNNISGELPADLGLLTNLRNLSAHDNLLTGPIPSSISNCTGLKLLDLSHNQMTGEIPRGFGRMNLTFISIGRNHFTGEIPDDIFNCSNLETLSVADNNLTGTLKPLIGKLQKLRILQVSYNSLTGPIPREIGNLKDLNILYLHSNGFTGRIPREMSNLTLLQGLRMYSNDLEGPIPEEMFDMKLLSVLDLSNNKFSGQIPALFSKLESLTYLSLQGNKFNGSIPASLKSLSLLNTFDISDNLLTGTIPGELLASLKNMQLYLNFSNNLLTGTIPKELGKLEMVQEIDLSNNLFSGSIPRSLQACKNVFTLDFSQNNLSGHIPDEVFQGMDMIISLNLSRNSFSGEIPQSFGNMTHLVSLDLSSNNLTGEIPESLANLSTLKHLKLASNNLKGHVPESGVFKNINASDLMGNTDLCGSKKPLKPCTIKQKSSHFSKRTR

[5] = target: GSO2 ectodomain (recombinant) (Arabidopsis) (UniProt Q9FIZ3); assay: grating-coupled interferometry
GSO2 ectodomain (recombinant) (Arabidopsis), sequence (Q9FIZ3 23-876): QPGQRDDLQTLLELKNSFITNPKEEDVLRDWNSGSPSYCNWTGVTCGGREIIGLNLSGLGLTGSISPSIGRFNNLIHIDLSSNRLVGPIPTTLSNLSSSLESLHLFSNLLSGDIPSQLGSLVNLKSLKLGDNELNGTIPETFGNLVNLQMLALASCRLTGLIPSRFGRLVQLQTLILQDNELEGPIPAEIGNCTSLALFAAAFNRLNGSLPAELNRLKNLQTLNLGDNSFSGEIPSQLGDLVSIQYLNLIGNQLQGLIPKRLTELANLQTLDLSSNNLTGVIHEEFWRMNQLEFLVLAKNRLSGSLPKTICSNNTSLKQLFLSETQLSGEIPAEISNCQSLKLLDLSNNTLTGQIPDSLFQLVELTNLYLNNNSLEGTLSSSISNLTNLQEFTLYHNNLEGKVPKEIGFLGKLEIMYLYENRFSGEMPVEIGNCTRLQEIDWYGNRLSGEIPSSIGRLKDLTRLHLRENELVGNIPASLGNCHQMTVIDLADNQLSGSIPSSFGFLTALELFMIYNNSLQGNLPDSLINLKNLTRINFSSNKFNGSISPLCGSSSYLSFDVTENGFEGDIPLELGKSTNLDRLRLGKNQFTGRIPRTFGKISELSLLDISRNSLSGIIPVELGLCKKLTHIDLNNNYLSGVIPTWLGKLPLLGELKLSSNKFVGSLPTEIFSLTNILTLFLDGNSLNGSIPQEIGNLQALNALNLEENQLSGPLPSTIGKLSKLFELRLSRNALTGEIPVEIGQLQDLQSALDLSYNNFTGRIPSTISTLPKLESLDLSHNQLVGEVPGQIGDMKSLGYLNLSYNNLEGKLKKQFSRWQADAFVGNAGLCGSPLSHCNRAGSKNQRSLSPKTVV

[6] = target: PEPR1 ectodomain (Arabidopsis) (UniProt Q9SSL9); assay: grating-coupled interferometry
PEPR1 ectodomain (Arabidopsis), sequence (Q9SSL9 29-769): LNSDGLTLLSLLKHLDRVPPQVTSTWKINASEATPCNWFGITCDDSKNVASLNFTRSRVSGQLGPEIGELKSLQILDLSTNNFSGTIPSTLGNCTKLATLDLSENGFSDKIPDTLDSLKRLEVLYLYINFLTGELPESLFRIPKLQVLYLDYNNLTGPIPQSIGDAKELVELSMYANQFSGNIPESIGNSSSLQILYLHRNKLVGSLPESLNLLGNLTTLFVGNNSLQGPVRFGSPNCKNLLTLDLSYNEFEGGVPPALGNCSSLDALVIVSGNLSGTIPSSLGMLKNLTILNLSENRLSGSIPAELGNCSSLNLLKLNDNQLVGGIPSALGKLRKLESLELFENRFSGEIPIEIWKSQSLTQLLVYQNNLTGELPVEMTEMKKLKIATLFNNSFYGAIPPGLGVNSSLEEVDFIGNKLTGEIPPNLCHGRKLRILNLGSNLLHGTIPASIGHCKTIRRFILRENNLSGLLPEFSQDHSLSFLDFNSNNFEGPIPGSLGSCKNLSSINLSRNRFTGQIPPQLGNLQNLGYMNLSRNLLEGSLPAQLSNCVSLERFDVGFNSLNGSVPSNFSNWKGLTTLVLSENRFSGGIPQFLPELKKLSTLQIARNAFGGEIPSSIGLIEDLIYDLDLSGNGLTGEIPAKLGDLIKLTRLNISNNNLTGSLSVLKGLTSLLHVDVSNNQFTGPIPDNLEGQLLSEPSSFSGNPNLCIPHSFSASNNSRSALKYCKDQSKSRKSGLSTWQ

[7] = target: GSO2 in the presence of CIF3; assay: GCI coreceptor assay, SERK1 and SERK3 vs GSO2 in the presence of CIF3; set-up: species or system Arabidopsis; conditions: read-out: Kd of SERK binding to GSO2
[8] = system: FLS2; assay: GCI, SERK3 binding to FLS2; set-up: species or system Arabidopsis
[9] = system: EFR; assay: GCI, SERK3 binding to EFR; set-up: species or system Arabidopsis
[10] = system: GSO1/SGN3 ectodomain (SGN3^WT) - CIF peptide; conditions: CIF-dependent interaction
[11] = system: GSO1/SGN3; assay: Binding of CIF2^Hyp69,71 to GSO1/SGN3; set-up: species or system Arabidopsis; conditions: SI Appendix, Fig. S6
[12] = target: BAM1 ectodomain (Arabidopsis) (UniProt O49545); assay: grating-coupled interferometry
BAM1 ectodomain (Arabidopsis), sequence (O49545 20-640): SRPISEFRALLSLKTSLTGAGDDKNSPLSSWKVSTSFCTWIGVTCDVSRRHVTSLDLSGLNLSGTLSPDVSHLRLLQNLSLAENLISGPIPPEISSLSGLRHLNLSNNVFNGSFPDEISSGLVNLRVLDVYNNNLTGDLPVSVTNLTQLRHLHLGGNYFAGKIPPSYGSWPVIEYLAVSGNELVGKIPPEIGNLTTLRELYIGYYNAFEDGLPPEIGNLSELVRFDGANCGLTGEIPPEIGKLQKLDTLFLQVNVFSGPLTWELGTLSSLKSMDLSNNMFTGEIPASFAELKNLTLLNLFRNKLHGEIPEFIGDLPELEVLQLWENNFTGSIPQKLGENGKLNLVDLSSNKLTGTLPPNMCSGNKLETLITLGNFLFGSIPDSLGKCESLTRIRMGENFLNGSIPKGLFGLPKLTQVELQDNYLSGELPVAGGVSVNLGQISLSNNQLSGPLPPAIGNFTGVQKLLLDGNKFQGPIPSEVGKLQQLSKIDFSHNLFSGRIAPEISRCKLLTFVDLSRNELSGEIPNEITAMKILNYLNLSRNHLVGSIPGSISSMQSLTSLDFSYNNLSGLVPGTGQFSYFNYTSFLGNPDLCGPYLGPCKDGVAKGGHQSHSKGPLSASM

[13] = target: FLS2 ectodomain (isolated) (Arabidopsis, UniProt Q9FL28 24-806); assay: grating-coupled interferometry
FLS2 ectodomain (isolated), sequence (Q9FL28 24-806): as the sequence (Q9FL28 24-806) above

[14] = target: T1, GSO1/SGN3 ectodomain (SGN3^WT) - CIF peptide (Arabidopsis thaliana, UniProt C0LGQ5); conditions: in the absence of CIF peptide
T1 sequence (C0LGQ5 19-870): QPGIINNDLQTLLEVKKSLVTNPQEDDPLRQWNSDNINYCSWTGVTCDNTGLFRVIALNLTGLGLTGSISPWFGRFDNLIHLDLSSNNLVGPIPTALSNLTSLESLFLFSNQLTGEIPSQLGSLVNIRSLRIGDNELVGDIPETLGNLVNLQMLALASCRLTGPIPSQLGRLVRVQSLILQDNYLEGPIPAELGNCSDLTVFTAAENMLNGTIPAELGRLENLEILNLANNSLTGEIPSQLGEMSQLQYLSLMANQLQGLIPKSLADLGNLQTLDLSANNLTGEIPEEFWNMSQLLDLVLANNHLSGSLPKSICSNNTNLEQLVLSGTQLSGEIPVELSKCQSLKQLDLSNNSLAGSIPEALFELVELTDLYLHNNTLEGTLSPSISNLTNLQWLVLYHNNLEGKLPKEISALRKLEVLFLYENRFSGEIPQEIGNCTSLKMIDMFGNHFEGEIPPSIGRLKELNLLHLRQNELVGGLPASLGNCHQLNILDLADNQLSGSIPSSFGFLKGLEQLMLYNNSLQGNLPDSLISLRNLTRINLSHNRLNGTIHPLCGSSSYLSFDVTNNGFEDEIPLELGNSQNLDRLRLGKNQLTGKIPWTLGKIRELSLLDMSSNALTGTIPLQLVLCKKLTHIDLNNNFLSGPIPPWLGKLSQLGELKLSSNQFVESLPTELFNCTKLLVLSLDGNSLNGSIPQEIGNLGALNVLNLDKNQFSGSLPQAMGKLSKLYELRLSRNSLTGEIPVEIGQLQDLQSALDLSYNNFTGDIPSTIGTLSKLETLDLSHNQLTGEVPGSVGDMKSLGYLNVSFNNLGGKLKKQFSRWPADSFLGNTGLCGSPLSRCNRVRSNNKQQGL

## CIF2 peptide, synthetic sTyr-containing (CIF2^WT) (from UniProt O65684 29-83)
[1]
  Kd: 40 nM
  stoichiometry N: 1
[2]
  Kd: 2 nM
[3]
  fold reduction of CIF2 binding against wild-type GSO1/SGN3: 10 fold

## flg22 immune elicitor peptide
[4]
  Kd: 1500 nM

## CIF3 peptide, tyrosine sulfated (CIF3^WT)
[2]
  Kd: 4 nM
[5]
  Kd: 4 nM

## PEP1 danger signal peptide (23 amino acids)
[6]
  Kd: 100 nM

## PEP2 danger signal peptide (23 amino acids) (from UniProt Q9LV88 74-109)
[6]
  Kd: 20000 nM

## CIF4 peptide (wild type)
[1]
  Kd: 300 nM
  stoichiometry N: 1

## SERK3: recombinant LRR ectodomain of the SERK3 coreceptor kinase
[7]
  Kd: 20 to 80 nM
[8]
  affinity of SERK3 binding: low micromolar affinity
[9]
  affinity of SERK3 binding: low micromolar affinity
[10]
  interaction of coreceptor candidate with GSO1/SGN3 in GCI assays: interacts

## CIF2^Hyp69,71: CIF2 with hydroxyprolines at positions 69 and 71 (GRSSILIYSQEDDHPEVVERRIHEHERILRMNSRDYGHSS[Hyp]K[Hyp]KLVRPPFKLIPN)
[11]
  dissociation constant compared with CIF2^WT: very similar dissociation constants

## CLE9 peptide (12 amino acids)
[12]
  Kd: 1 nM

B1: SERK3 LRR ectodomain (receptor, Arabidopsis, UniProt Q94F62 26-225, looked up)
chain: NAEGDALSALKNSLADPNKVLQSWDATLVTPCTWFHVTCNSDNSVTRVDLGNANLSGQLVMQLGQLPNLQYLELYSNNITGTIPEQLGNLTELVSLDLYLNNLSGPIPSTLGRLKKLRFLRLNNNSLSGEIPRSLTAVLTLQVLDLSNNPLTGDIPVNGSFSLFTPISFANTKLTPLPASPPPPISPTPPSPAGSNRITG
[13]
  binding result: binds

B2: SERK1: recombinant LRR ectodomain of the SERK1 coreceptor kinase (residues 24 to 213) (protein)
chain: ASANLEGDALHTLRVTLVDPNNVLQSWDPTLVNPCTWFHVTCNNENSVIRVDLGNAELSGHLVPELGVLKNLQYLELYSNNITGPIPSNLGNLTNLVSLDLYLNSFSGPIPESLGKLSKLRFLRLNNNSLTGSIPMSLTNITTLQVLDLSNNRLSGSVPDNGSFSLFTPISFANNLDLCGPVTSHPCPGS
[7]
  Kd: 20 to 80 nM
[14]
  SERK1 binding to SGN3: No SERK1 binding
